Assay results from the RNAGym collection of RNA variant scans (doi:10.1073/pnas.2313332121).
Fewer inactive variants are shown than the library holds.

B1: TPR 5TU (parent)
chain: GGAUCUUCUCGAUCUAACAAAAAAGACAAAUCUGCCACAAAGCUUGAGAGCAUCUUCGGAUGCAGAGGCGGCAGCCUUCGGUGGCGCGAUAGCGCCAACGUUCUCAACUAUGACACGCAAAACGCGUGCUCCGUUGAAUGGAGUUUAUCAUG

Variants of: B1
Assay: polymerase ribozyme fitness, log enrichment relative to wild type (log ratio); higher = more active; in vitro selection for triplet polymerase activity
Procedure, shortened: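 To select mutant libraries of each subunit of a heterodimeric triplet polymerase ribozyme, built by PCR and transcribed, each was annealed with a biotinylated primer, partner subunit and triplets, then incubated frozen at −7 °C. Extended constructs were gel-excised, captured on streptavidin beads and amplified by RT-PCR, in one round carried out in triplicate. Illumina sequencing of input and output libraries kept genotypes with ≥10 input reads and ≥1 read per output. Fitness is the base-2 logarithm of genotype enrichment relative to wild-type enrichment, from inverse-variance-weighted replicate averages.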

Point of comparison: A52C G70A, “polymerase ribozyme fitness (log ratio)” value -3.92. Against it:
- A52G U55G G58A C95G U134A U139A — lower, ≤ -4.2
- A52C G71C — lower, ≤ -4.2
- A52G U56A C87A C93A A113G U135A — lower, ≤ -4.2
- A52G C108G — lower, ≤ -4.2
- A52G U53G — higher, -3.21
- A52U U56A G83C G84A C99G A106U U144A — lower, ≤ -4.2
- A52G G83A A121G — higher, -0.142
- U53A C118U U134C G141A U146C — higher, -0.702
- A52C U56C C103G G143C — lower, -4.12
- A52C G58C C85A — within 0.2 log units, -3.96
- A52G C69U A106C C125U — lower, -4.12
- A52C C85U A121C U134C A142C — higher, -2.29
- U53A C57G G74C C87A C93A C149A — lower, ≤ -4.2
- A52G C96G G112C — lower, ≤ -4.2
- A52C C132U — higher, -2.24
- A52U U101G — higher, -2.22
- A52U C87A A97U U127C A142C — lower, ≤ -4.2
- U53A C95A A120G — higher, -1.57
- A52G A106G G143A — higher, -0.542
- A52U U55A A115U C118A G126U A150U — lower, ≤ -4.2
- U53A C95U A138C — lower, ≤ -4.2
- A52G A150C — higher, -3.43
- U53A C99U U134A — higher, -3.7
- A52G A97U — higher, -0.8
- A52G C79G — higher, -3.71
- A52G C69U G143A — higher, -2.71
- A52C G152U — higher, -3.45
- A52G G92C G117U A137G U144A — lower, ≤ -4.2
- A52C G67A G74U G86U C93U A115G — lower, ≤ -4.2
- A52G G100U — within 0.2 log units, -3.98
- U53A C76U — higher, -1.36
- A52U G80C G126A G133C — lower, ≤ -4.2
- A52C G58C G88U — lower, ≤ -4.2
- U53A C93G A98G — lower, ≤ -4.2
- A52G C85U — higher, -0.204
- A52G C85G — higher, -2.16
- A52G A60G C85A C95G A97G U102A C125A — lower, ≤ -4.2
- A52C G59A — higher, -1.18
- A52C C87U A89C C99U — lower, -4.14
- U53A C85U G133C — higher, -2.22
- A52U U109G — higher, -3.48
- A52U A60G C76U A89U C96U — within 0.2 log units, -3.8
- A52G C57A A66G G68C C93U U101G G112U G140C U145A — lower, ≤ -4.2
- A52U U61G G80C C87G G94U A121U — lower, ≤ -4.2
- U53A C54U C85U G141U — higher, -1.21
- A52G G136U A142G — higher, -3.58
- A52G G70A C96A U102G C129G G143A U146A — lower, ≤ -4.2
- A52G A64U U101G A107C C125G — lower, ≤ -4.2
- A52U G68A U82G G133U A137C A142C — lower, ≤ -4.2
- A52C C69G G74C — lower, ≤ -4.2
- A52G C57A A73U — higher, -0.666
- A52G U55A G59C G86U A142C G143C — lower, ≤ -4.2
- A52G C125U C131U G143U U146G — lower, ≤ -4.2
- A52C G80C G83U — lower, ≤ -4.2
- A52C C93G A122G — higher, -3.18
- A52C U55A C72U A98U — higher, -3.14
- A52G C76A — higher, -0.0301
- A52G G94C U102C C131U — higher, -1.64
- A52G A66C G84C C85A G126U — lower, ≤ -4.2
- U53A C85U A137G A142C — within 0.2 log units, -3.93
- A52C G84U U144G — higher, -2.05
- A52C G83C — higher, -2.29
- A52G G92C — higher, -1.46
- A52G G92A — higher, -3.13
- A52C C96A C118G C125A — higher, -2.23
- A52U U77G G84C G128A G143A — lower, ≤ -4.2
- A52G G58C G68C — lower, ≤ -4.2
- U53A — higher, -0.874
- A52C C85U — higher, -1.81
- A52G — higher, -0.491
- A52U — higher, -1.49
- U53A A91G G126U G140U — lower, ≤ -4.2
- A52G U77G A91C — lower, ≤ -4.2
- U53A C103U — higher, -0.534
- U53A C76A G84C A122U — lower, ≤ -4.2
- A52U U53A C57A G81U G83C C103G G126A — lower, ≤ -4.2
- A52U G92C — higher, -2.01
- A52U G74A G80C C95U A147C — lower, ≤ -4.2
- A52G U53G A106C A119U G136U — lower, ≤ -4.2
- U53A C95G C96G U146A — within 0.2 log units, -3.91
- A52C C85A C93U C96G A121C U146C — lower, ≤ -4.2
- A52G U148G — lower, -4.18
- A52U C96U G100A A147C — lower, ≤ -4.2
